Data from US8614103B2, “Compositions and methods for treating sphingosine-1-phosphate (S1P) related ocular diseases and conditions” (Lpath, Inc., priority 2006, dated 2013).

Legend:
CNV lesions [1] = test: CNV animal model, murine vs humanized variants (Example 17); format: in vivo, mouse; settings: 0.5 ug intravitreal Day 0 and Day 6; 14 days post laser; vs saline
Procedure: The humanized antibody variants and the murine antibody were compared for their ability to inhibit neo-vascularization in the CNV animal model of AMD as shown in FIG. 13. […] Mice were sacrificed 14 days post laser surgery. Control mice were treated with aqueous buffer (PBS) or an isotype-matched non-specific antibody. Three of the humanized variants inhibited angiogenesis essentially equivalently to the murine antibody as assessed by measurement of CNV area. CNV lesion volumes are represented as means±SEM. […]
The morphometric and volumetric CNV lesions were measured as follows. […]
Captured digital images were evaluated morphometrically using ImageJ software (Research Services Branch, National Institutes of Health, Bethesda, Md.). Images were split into separate RGB channels for analysis of the red and green channels as follows: 1) a calibration for the specific objective and microscope was applied to set the pixel-to-length ratio; 2) a threshold was applied using the Otsu algorithm; 3) images will be made binary; 4) a region-of-interest (ROI) was outlined to include the entire lesion area; 5) a particle analysis was performed to quantify the pixel area above the threshold level within the ROI. […]

CNV lesions [2] = test: Murine laser-induced CNV model (Example 4); format: in vivo, mouse; settings: 0.5 μg
Procedure: Female C57BL6/J mice were subjected to laser-induced rupture of Bruch's membrane and administered either 0.5 μg of Sphingomab or an isotype-matched non-specific (NS) antibody diluted in 2 μl of physiological saline. Mice were sacrificed 14 and 28 days after laser rupture.
To induce CNV lesions, the pupils were dilated with ophthalmic tropicamide (0.5%) and phenylephrine (2.5%). A coverslip was placed on the eye. An Oculight GL 532 nm (Iridex Corporation, Mountain View, Calif.) coupled to a slit lamp set to deliver a 100 msec pulse at 150 mW with a 50 μm spot size was used to rupture Bruch's membrane in three quadrants of the right eye located approximately 50 μm from the optic disc at relative 9, 12 and 3 o'clock positions. The left eye served as an uninjured control in all cases. Any lesion not associated with a vapor bubble or lesions that became confluent were excluded from analysis. […]
To assess collagen deposition, the sclera-choroid-RPE complex was stained with Masson's Trichrome. […] Approximately 30 sections per lesion were evaluated. Quantitation of the volume of collagen deposition was calculated in the same manner as described for CNV lesion volume.
Captured digital images were evaluated morphometrically using ImageJ software (Research Services Branch, National Institutes of Health, Bethesda, Md.).

B1: LT1002: murine monoclonal antibody to S1P, IgG1 kappa, hybridoma clone 306D326.26 (antibody, listed as Mus sp., V domains shown)
VH: QAHLQQSDAELVKPGASVKISCKVSGFIFIDHTIHWMKQRPEQGLEWIGCISPRHDITKYNEMFRGKATLTADKSSTTAYIQVNSLTFEDSAVYFCARGGFYGSTIWFDFWGQGTTLTVS
VL: ETTVTQSPASLSMAIGEKVTIRCITTTDIDDDMNWFQQKPGEPPNLLISEGNILRPGVPSRFSSSGYGTDFLFTIENMLSEDVADYYCLQSDNLPFTFGSGTKLEIK
With B1 the “Percent inhibition of lesion size” value (CNV lesions [1]) was “approximately 80%”, the choroidal neovascularization (CNV lesions [2]; 14 and 28 days after laser-induced rupture of Bruch's membrane) was “dramatically attenuates” and the “fibrosis associated with CNV lesion formation” value (CNV lesions [2]; 28 days after laser rupture, Masson's Trichrome) was “significantly reduces”.
